Values quoted from earlier work, collected in article PMC8431939.
pKd: −log10 of the molar value.

Target: CD112 (Homo sapiens) (UniProt Q92692)
Assay: SPR

Chain of UniProt Q92692 (Q92692 32-538): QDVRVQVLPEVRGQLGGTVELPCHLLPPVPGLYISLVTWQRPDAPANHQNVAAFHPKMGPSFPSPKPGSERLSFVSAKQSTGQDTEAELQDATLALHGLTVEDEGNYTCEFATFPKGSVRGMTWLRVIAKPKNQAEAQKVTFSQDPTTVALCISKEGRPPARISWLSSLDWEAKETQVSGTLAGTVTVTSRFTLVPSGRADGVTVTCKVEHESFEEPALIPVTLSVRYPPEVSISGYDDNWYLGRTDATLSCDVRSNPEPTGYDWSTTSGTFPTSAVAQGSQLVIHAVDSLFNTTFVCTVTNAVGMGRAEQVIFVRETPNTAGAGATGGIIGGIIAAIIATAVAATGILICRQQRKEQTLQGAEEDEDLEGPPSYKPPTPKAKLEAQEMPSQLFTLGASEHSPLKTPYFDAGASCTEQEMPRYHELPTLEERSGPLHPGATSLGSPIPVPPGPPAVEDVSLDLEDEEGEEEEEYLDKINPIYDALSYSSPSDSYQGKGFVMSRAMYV

In the case of CD112R (from UniProt Q6DKI7), the pKd is given as 7.06.
